From publication PMC6744409

Target: LptB2FG from Shigella flexneri (Shigella flexneri) (UniProt P0A9V4)

“LptC from Shigella flexneri (subunit of sfLptB2FGC) (from UniProt P0ADW2 1-191) (natural protein)” showed an ATPase activity of purified sfLptB2FGC compared with sfLptB2FG under the same conditions of 50 % less.
